Among the targets are 121C7; 119C9; 124H2; 12D2; 81D1; 119H1; 12A11; 124H5; 124D2; 119C3; 123F1; 119B3; 124G2; 3A7; 3C7; 1G8; 3A11; 3E1; 3H5; 3D4; 3G9; 4F3; 3A10.
Holding throughout (assay): Biacore; eBiosc hIL23

B1: eBiosc hIL23 (ligand)
chain 1: RAVPGGSSPAWTQCQQLSQKLCTLAWSAHPLVGHMDLREEGDEETTNDVPHIQCGDGCDPQGLRDNSQFCLQRIHQGLIFYEKLLGSDIFTGEPSLLPDSPVGQLHASLLGLSQLLQPEGHHWETQQIPSLSPSQPWQRLLLRFKILRSLQAFVAVAARVFAHGAATLSP
chain 2: IWELKKDVYVVELDWYPDAPGEMVVLTCDTPEEDGITWTLDQSSEVLGSGKTLTIQVKEFGDAGQYTCHKGGEVLSHSLLLLHKKEDGIWSTDILKDQKEPKNKTFLRCEAKNYSGRFTCWWLTTISTDLTFSVKSSRGSSDPQGVTCGAATLSAERVRGDNKEYEYSVECQEDSACPAAEESLPIEVMVDAVHKLKYENYTSSFFIRDIIKPDPPKNLQLKPLKNSRQVEVSWEYPDTWSTPHSYFSLTFCVQVQGKSKREKKDRVFTDKTSATVICRKNASISVRAQDRYYSSSWSEWASVPCS
In general, koff refers to a measure of how fast the partners let go of each other. Read a high koff as fast dissociation. For B1, the koff in the experiment with 121C7 was found to be 0.000112 s⁻¹; with 119C9 it was 0.0012 s⁻¹; in the experiment with 124H2 it was 5.88e-05 s⁻¹; with 12D2, 0.000125 s⁻¹; in the experiment with 81D1, 0.0114 s⁻¹; with 119H1, 0.0106 s⁻¹. For the same molecule, the koff in the experiment with 12A11 is 0.000134 s⁻¹; in the experiment with 124H5, 3.54e-05 s⁻¹; with 124D2 it was 0.000103 s⁻¹; in the experiment with 119C3, 0.0334 s⁻¹; with 123F1 it was 0.000377 s⁻¹; with 119B3 it was 0.00015 s⁻¹. Further, the koff with 124G2 was determined as 9.28e-05 s⁻¹; with 3A7, 0.00507 s⁻¹; with 3C7, 0.0102 s⁻¹; with 1G8, 0.00223 s⁻¹; with 3A11 it was 0.00513 s⁻¹; in the experiment with 3E1, 0.00866 s⁻¹. The koff came out at 0.00333 s⁻¹ with 3H5; 0.0062 s⁻¹ with 3D4; 0.00672 s⁻¹ with 3G9; 0.00208 s⁻¹ in the experiment with 4F3; 0.00286 s⁻¹ with 3A10.

For the origin of these results see US20110053865A1 (published 2011).
